Measured values published in EP4786493A1.

What was measured:
[1] = target: human Claudin 18.2 expressed on cells (HEK293/human Claudin 18.2; CHO-K1/human Claudin 18.2) (human) (UniProt P56856); experiment: cell-based or functional assay
[2] = target: recombinant human Claudin 18.2 protein (GenScript, Z03504) (human) (UniProt P56856); experiment: indirect ELISA, plate coated with recombinant human Claudin 18.2, anti-human IgG Fc-HRP detection
[3] = target: human Claudin 18.2 expressed on cells (HEK293/human Claudin 18.2; CHO-K1/human Claudin 18.2) (human) (UniProt P56856); experiment: flow cytometry on HEK293 cells expressing human Claudin 18.2
[4] = target: recombinant human Claudin 18.2 protein (GenScript, Z03504) (human) (UniProt P56856); experiment: competition ELISA on coated recombinant human Claudin 18.2; unlabelled IMAB362 against biotinylated IMAB362 (0.72 µg/ml)
[5] = target: recombinant human Claudin 18.2 protein (GenScript, Z03504) (human) (UniProt P56856); experiment: SPR Biacore 8K, antibody captured via Fc, human Claudin 18.2 protein as analyte

Row | ADCC reporter gene assay (CHO-K1/Claudin 18.2 target cells, GS-J2C/CD16A 158V effector cells): EC50 [1] | ADCC reporter gene assay (CHO-K1/Claudin 18.2 target cells, GS-J2C/CD16A 158V effector cells): Top [1] | CDC on CHO-K1/human Claudin 18.2 cells: EC50 [1] | CDC on CHO-K1/human Claudin 18.2 cells: Top [1] | EC50 [2] | EC50 [3] | IC50 [4] | Kd [5] | Substance
1 | 352 nM | 90500 | 23.7 | 5.61% | – | – | – | – | Human IgG1 (antibody)
2 | 0.758 nM | 213000 | – | 93% | 1.53 nM | 7.8 nM | 1.79 nM | 39.3 nM | Zolbetuximab (IMAB362, HuIgG1) (antibody)
